Where “and” joins values, the source holds several entries; their conditions need not be identical. Equal values may be shown once. Bridge positions count the residues as written; N and C are the ends.

The source of these data is paper PMC10683372.

One data set concerns the target α‐thrombin (αT). As to the kind of experiment: enzyme inhibition (amidolytic activity on S2238).
The target of data set [1] is recombinant wild type α‐thrombin. Briefly: enzyme inhibition (amidolytic activity on S2238).
Data set [2] deals with [F]‐Haem(45–57), N^α‐fluoresceinated analogue of the peptide 45–57 (Haemadipsa sylvestris). Briefly: other fluorescence titration; thrombin (S195A by the methods) or its hirudin complex added to the fluoresceinated peptide (60 nM); excitation 492 nm, emission 516 nm; TBS, 25°C.
The target in data set [3] is recombinant wild type α‐thrombin. As to the kind of experiment: other fluorescence titration; intrinsic fluorescence of thrombin (50 nM) at 334 nm recorded at increasing peptide concentration; TBS pH 7.4, 0.15 M NaCl, 0.1% PEG-8000, 25°C; one-site model.

In the data set with α‐thrombin (αT), “full‐length haemadin Met5nLeu analogue (natural protein)” showed a fold increase of KI(fast) against wild-type haemadin of 2 fold and a fold increase of KI(slow) against wild-type haemadin of 2 fold. In general, Ki refers to the equilibrium dissociation constant of an inhibitor or competing ligand from its target. As usually defined, the koff is a measure of how fast the partners let go of each other. A word on the kon: it is the second-order rate constant of association. In the case of “full‐length wild‐type haemadin 1–57 (natural protein)”, the Ki with α‐thrombin (αT) was 0.00023 nM and 0.0015 nM. In data set [1], the Ki amounted to 0.000214 nM, the koff stood at 4.83e-05 s⁻¹ and the kon stood at 2.25e+08 M⁻¹ s⁻¹. In the data set with α‐thrombin (αT), Haem(1–10) wild type (peptide) gave a Ki of 1900 nM. As a reminder, the Kd is the free concentration of one partner at which half of the binding sites on the other are occupied at equilibrium, for simple one-to-one binding. For preformed S195A‐hirudin complex, in data set [2], the Kd came out at 12800 nM. On to “H-IRFGMGKVPCPDGEVGYTCDCGEKICLYGQSCNDGQCSGDPKPSSEFEEFEIDEEEK-OH (disulfide 10-19, 21-32, 26-37)”, for which the T m higher than hirudin stood at 22 °C. Take Haem(45–57) (peptide): the Kd in data set [3] stood at 1600 nM. Take “catalytically inactive αT S195A mutant (enzyme)”: the Kd in data set [2] is 350 nM.
